Measurements taken from patent publication US20250002543A1.
Positions count from the first letter of the chain named. Names may count otherwise. Each block holds one binder with its values, some of them ahead of it.

Legend:
[1] = target: immunoglobulin immobilized on IgG Sepharose 6 Fast Flow (manufactured by Cytiva); assay: IgG Sepharose 6 Fast Flow column; linear gradient 0.1 M citrate pH 6.5 to pH 2.2; pH at the peak of the eluted binding protein
[2] = target: human antibody (gamma globulin preparation, manufactured by The Chemo-Sero-Therapeutic Research Institute) (human); assay: ELISA; human gamma globulin immobilised; acid treatment 50 mM buffer pH 3.0, 25 C, 15 min; elution rate = 1 - remaining binding activity
[3] = target: human antibody (gamma globulin preparation, manufactured by The Chemo-Sero-Therapeutic Research Institute) (human); assay: ELISA; human gamma globulin immobilised; acid treatment 50 mM buffer pH 3.2, 25 C, 5 min; elution rate = 1 - remaining binding activity
[4] = target: human antibody (gamma globulin preparation, manufactured by The Chemo-Sero-Therapeutic Research Institute) (human); assay: as above; remark: listed apart in the source

B7: FpL_C3KX 7d (designed binder)
chain: ETPGESAEEVTIRVNLIFADGRIQTAEFIGTFEEATAEAYAYANLLARDYGDFTADLEDGGYTINIRFAGHHHHHH
- Elution rate [%] [2]: 78%

B8: FpL_C3KX 7d_G21R (designed binder)
chain: B7 chain with G21R
- Elution rate [%] [2]: 82%

B9: FpL_C3KX 7d_E8R (designed binder)
chain: B7 chain with E8R
- Elution rate [%] [2]: 82%

B11: FpL_C3KX 7d_E52Y (designed binder)
chain: B7 chain with D52Y
- Elution rate [%] [2]: 85%

B12: FpL_C3KX 7d_Y53S (designed binder)
chain: B7 chain with F53S
- Elution rate [%] [2]: 83%

B14: FpL_C3KX 7e (designed binder)
chain: B7 chain with D52E, A69V
- Elution rate [%] [3]: 46%
- Elution rate [%] [4]: 26%

B15: FpL_C3KX 7e amino acid substitution mutant Glu34Asp (designed binder)
chain: B7 chain with E34D, D52E, A69V
- Elution rate [%] [4]: 46%

B17: FpL_C3KX 7d_K38H (designed binder)
chain: B7 chain with E38H
- Elution rate [%] [2]: 86%

B18: FpL_C3KX 7d_I23F (designed binder)
chain: B7 chain with I23F
- Elution rate [%] [2]: 81%

B19: FpL_C3KX 7d_K38L (designed binder)
chain: B7 chain with E38L
- Elution rate [%] [2]: 88%

B20: FpL_C3KX 7d_E8G (designed binder)
chain: B7 chain with E8G
- Elution rate [%] [2]: 80%

B23: FpL_C3KX 7d_K48H (designed binder)
chain: B7 chain with R48H
- Elution rate [%] [2]: 85%

B24: FpL_C3KX 7d_N50M (designed binder)
chain: B7 chain with Y50M
- Elution rate [%] [2]: 86%

B25: FpL_C3KX 7d_N44R (designed binder)
chain: B7 chain with N44R
- Elution rate [%] [2]: 82%

B27: FpL_C3KX 7d_N44H (designed binder)
chain: B7 chain with N44H
- Elution rate [%] [2]: 82%

B28: FpL_C3KX 7e amino acid substitution mutant Asn15Val (designed binder)
chain: B7 chain with N15V, D52E, A69V
- Elution rate [%] [4]: 29%

B29: FpL_C3KX 7d_P6A (designed binder)
chain: B7 chain with S6A
- Elution rate [%] [2]: 82%

B31: FpL_C3KX 7d_E33V (designed binder)
chain: B7 chain with E33V
- Elution rate [%] [2]: 86%

B32: FpL_C3KX 7d_I23L (designed binder)
chain: B7 chain with I23L
- Elution rate [%] [2]: 82%

B36: FpL_C3 G21R (designed binder)
chain: ETPEEPKEEVTIKVNLIFADRKIQTAEFKGTFEEATAKAYAYANLLAKENGEYTADLEDGGNTINIKFAGHHHHHH
- Elution pH [1]: 3.4 pH

B37: FpL_C3 N62H (designed binder)
chain: B36 chain with R21G, N62H
- Elution pH [1]: 3 pH

B38: FpL_C3 G51V (designed binder)
chain: B36 chain with R21G, G51V
- Elution pH [1]: 3.4 pH

B39: FpL_C3 N62R (designed binder)
chain: B36 chain with R21G, N62R
- Elution pH [1]: 3 pH

B40: FpL_C3 N62W (designed binder)
chain: B36 chain with R21G, N62W
- Elution pH [1]: 3 pH

B41: FpL_C3 N62Y (designed binder)
chain: B36 chain with R21G, N62Y
- Elution pH [1]: 3 pH

Next, values leading:

- Elution pH [1]: 3 pH
B1: FpL_C4KR amino acid substitution mutant Lys(Arg)7Gln (designed binder)
chain: ETPEEPQEEVTIRVNLIFADGRTQTAEFRGTFEEATAEAYRYADLLARVNGEYTADLEDGGYTINIRFAGHHHHHH

- Elution pH [1]: 3.1 pH
B2: FpL_C4KR amino acid substitution mutant Lys(Arg)29Val (designed binder)
chain: B1 chain with Q7R, R29V

- Elution pH [1]: 3.1 pH
B3: FpL_C4KR amino acid substitution mutant Lys(Arg)13Val (designed binder)
chain: B1 chain with Q7R, R13V

- Elution pH [1]: 3.2 pH
B4: FpL_C4KR amino acid substitution mutant Lys(Arg)29Pro (designed binder)
chain: B1 chain with Q7R, R29P

- Elution pH [1]: 3.1 pH
B5: FpL_C4KR amino acid substitution mutant Lys(Arg)29Ile (designed binder)
chain: B1 chain with Q7R, R29I

- Elution pH [1]: 3.2 pH
B6: FpL_C4KR amino acid substitution mutant Lys(Arg)22Thr (designed binder)
chain: B1 chain with Q7R, R22T

- Elution rate [%] [3]: 68%
B10: FpL_C3KX 9e (designed binder)
chain: B7 chain with N44H, D52E, I64L, A69V

- Elution rate [%] [3]: 67%
B13: FpL_C3KX 10b (designed binder)
chain: B7 chain with I23R, N44H, R48H, D52E, I64L, A69V

- Elution rate [%] [4]: 29%
B16: FpL_C3KX 7e amino acid substitution mutant Glu34Val (designed binder)
chain: B7 chain with E34V, D52E, A69V

- Elution rate [%] [3]: 68%
B21: FpL_C3KX 9b (designed binder)
chain: B7 chain with I23R, N44H, D52E, A69V

- Elution rate [%] [3]: 63%
B22: FpL_C3KX 9d (designed binder)
chain: B7 chain with N44R, D52E, I64L, A69V

- Elution rate [%] [3]: 69%
B26: FpL_C3KX 9c (designed binder)
chain: B7 chain with I23R, D52E, I64L, A69V

- Elution rate [%] [3]: 70%
B30: FpL_C3KX 9a (designed binder)
chain: B7 chain with I23R, N44R, D52E, A69V

- Elution rate [%] [4]: 51%
B33: FpL_C3KX 7e amino acid substitution mutant Glu34Leu (designed binder)
chain: B7 chain with E34L, D52E, A69V

- Elution rate [%] [4]: 64%
B34: FpL_C3KX 7e amino acid substitution mutant Glu34Phe (designed binder)
chain: B7 chain with E34F, D52E, A69V

- Elution rate [%] [3]: 75%
B35: FpL_C3KX 10a (designed binder)
chain: B7 chain with I23R, N44R, R48H, D52E, I64L, A69V
